From the supplement of paper PMC10567573

B1: PKD2L1 (parent)
chain: SGPEAARAGGWVSGEEFYMLTRRV
B2: KLHL13 (parent)
chain: TGEFLKLPFERLAFVLSSNSLKHC
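Further: lentivirally expressed fusions sorted by FACS into six bins by GFP to DsRed ratio, PSI derived from sequencing read proportions per bin multiplied by bin number.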

Variants of: B1
Assay: protein stability index of a GFP-peptide fusion (GPS, HEK-293T) (PSI 1-6); higher = more stable
Settings: c terminus: a fixed tail appended
For V24R, the protein stability index was 2.63.
With V24Q the protein stability index was 3.01.
V24F showed a protein stability index of 1.71.
In the case of V24S, the protein stability index is reported as 2.67.
Work on V24C yielded a protein stability index of 2.08.
With V24P the protein stability index was 2.81.
In the case of V24T, the protein stability index is reported as 2.98.
Work on V24K yielded a protein stability index of 3.63.
V24I gave a protein stability index of 1.96.
Variant V24G has a protein stability index of 2.48.
For V24A, the protein stability index was 1.97.
Variant V24E has a protein stability index of 3.16.
For V24D, the protein stability index was 3.54.
V24N showed a protein stability index of 2.66.
With V24Y the protein stability index was 2.07.
V24M gave a protein stability index of 1.71.
Variant V24L has a protein stability index of 1.98.
In the case of V24W, the protein stability index is reported as 2.14.
V24H gave a protein stability index of 2.72.
In the case of R23Y, the protein stability index is reported as 2.44.
Work on R23W yielded a protein stability index of 2.87.

Variants of: B2
Assay: as above
Settings: c terminus: a fixed tail appended
With T1L the protein stability index was 3.16.
In the case of T1R, the protein stability index is reported as 3.17.
With T1Q the protein stability index was 2.82.
T1H showed a protein stability index of 3.25.
In the case of T1E, the protein stability index is reported as 2.1.
Variant F9G has a protein stability index of 2.18.
With F9I the protein stability index was 3.04.
Work on F9D yielded a protein stability index of 2.04.
Work on F9Q yielded a protein stability index of 2.6.
For F9L, the protein stability index was 3.5.
In the case of F9H, the protein stability index is reported as 1.71.
In the case of F9S, the protein stability index is reported as 2.07.
F9C showed a protein stability index of 1.82.
For F9M, the protein stability index was 3.01.
For F9P, the protein stability index was 2.04.
With F9Y the protein stability index was 2.7.
Work on F9K yielded a protein stability index of 2.56.
Work on F9W yielded a protein stability index of 3.18.
F9T showed a protein stability index of 1.65.
F9N showed a protein stability index of 1.8.
In the case of F9V, the protein stability index is reported as 2.23.
Variant F9R has a protein stability index of 1.65.
Work on F9E yielded a protein stability index of 2.22.
For F9A, the protein stability index was 2.33.
P8C gave a protein stability index of 1.84.
P8Q gave a protein stability index of 1.41.
In the case of P8D, the protein stability index is reported as 1.58.
P8Y showed a protein stability index of 4.25.
Work on P8M yielded a protein stability index of 3.97.
P8T gave a protein stability index of 3.92.
With P8N the protein stability index was 2.66.
Variant K6A has a protein stability index of 3.83.
K6T showed a protein stability index of 2.73.
Variant K6L has a protein stability index of 3.24.
K6S gave a protein stability index of 3.28.
In the case of K6I, the protein stability index is reported as 2.34.
In the case of K6P, the protein stability index is reported as 2.01.
Variant K6C has a protein stability index of 2.54.
K6D showed a protein stability index of 1.38.
In the case of L5E, the protein stability index is reported as 1.72.
For L5A, the protein stability index was 1.6.
For L5C, the protein stability index was 2.26.
L5D gave a protein stability index of 2.48.
In the case of L5K, the protein stability index is reported as 1.85.
L5N showed a protein stability index of 1.52.
With L5T the protein stability index was 2.54.
L5Q gave a protein stability index of 2.06.
For L5Y, the protein stability index was 1.8.
With L5R the protein stability index was 2.16.
With L5H the protein stability index was 1.78.
F4Y showed a protein stability index of 2.4.
For F4D, the protein stability index was 1.55.
For F4A, the protein stability index was 2.92.
In the case of F4N, the protein stability index is reported as 1.48.
In the case of F4I, the protein stability index is reported as 1.31.
F4P showed a protein stability index of 1.62.
Variant F4S has a protein stability index of 3.3.
In the case of F4G, the protein stability index is reported as 1.45.
F4W showed a protein stability index of 2.03.
Variant F4E has a protein stability index of 1.42.
F4K gave a protein stability index of 1.78.
Work on F4R yielded a protein stability index of 1.13.
L7K gave a protein stability index of 1.86.
For L7T, the protein stability index was 3.88.
L7W gave a protein stability index of 4.29.
Work on L7P yielded a protein stability index of 2.87.
Work on L7A yielded a protein stability index of 1.73.
Variant L7E has a protein stability index of 1.08.
Variant L7Q has a protein stability index of 1.19.
In the case of L7D, the protein stability index is reported as 1.25.
L7I gave a protein stability index of 3.09.
With A13E the protein stability index was 1.71.
In the case of A13G, the protein stability index is reported as 1.6.
Variant A13H has a protein stability index of 1.72.
In the case of A13C, the protein stability index is reported as 2.41.
A13I showed a protein stability index of 3.35.
In the case of A13M, the protein stability index is reported as 3.12.
A13F gave a protein stability index of 1.67.
Work on A13K yielded a protein stability index of 1.98.
For A13D, the protein stability index was 2.08.
With G2N the protein stability index was 2.52.
With G2K the protein stability index was 2.12.
In the case of G2H, the protein stability index is reported as 3.72.
G2I showed a protein stability index of 4.78.
In the case of G2F, the protein stability index is reported as 3.56.
Work on E3D yielded a protein stability index of 3.15.
E3Q showed a protein stability index of 4.44.
E3R gave a protein stability index of 2.35.
In the case of E3H, the protein stability index is reported as 2.67.
E3Y showed a protein stability index of 3.14.
E3N gave a protein stability index of 5.52.
Variant E3V has a protein stability index of 2.28.
In the case of E3A, the protein stability index is reported as 2.21.
Variant E3G has a protein stability index of 4.77.
For E3T, the protein stability index was 1.
In the case of E3P, the protein stability index is reported as 2.66.
Work on E10D yielded a protein stability index of 3.16.
With E10C the protein stability index was 2.48.
In the case of E10K, the protein stability index is reported as 2.76.
In the case of E10T, the protein stability index is reported as 2.76.
E10R gave a protein stability index of 4.24.
E10P showed a protein stability index of 2.75.
In the case of E10S, the protein stability index is reported as 2.96.
For E10W, the protein stability index was 3.59.
In the case of E10Y, the protein stability index is reported as 3.3.
E10H showed a protein stability index of 2.69.
Variant E10N has a protein stability index of 1.99.
With E10Q the protein stability index was 2.03.
E10A gave a protein stability index of 3.65.
Work on E10L yielded a protein stability index of 2.88.
For E10M, the protein stability index was 3.02.
Work on E10G yielded a protein stability index of 2.42.
R11Y gave a protein stability index of 4.43.
R11P gave a protein stability index of 3.17.
Work on R11M yielded a protein stability index of 3.39.
In the case of R11K, the protein stability index is reported as 3.47.
Variant R11E has a protein stability index of 2.48.
With R11N the protein stability index was 3.3.
With R11D the protein stability index was 2.08.
Work on R11H yielded a protein stability index of 1.62.
In the case of R11T, the protein stability index is reported as 4.01.
R11W gave a protein stability index of 2.11.
Variant R11S has a protein stability index of 3.23.
R11G showed a protein stability index of 2.54.
R11F showed a protein stability index of 3.1.
Work on R11C yielded a protein stability index of 2.12.
For R11Q, the protein stability index was 3.1.
Variant R11V has a protein stability index of 3.99.
With R11A the protein stability index was 3.93.
In the case of L12Y, the protein stability index is reported as 1.76.
For L12T, the protein stability index was 1.53.
For L12S, the protein stability index was 1.92.
With L12H the protein stability index was 2.27.
With L12E the protein stability index was 1.96.
With L12K the protein stability index was 2.12.
L12N gave a protein stability index of 2.15.
In the case of L12A, the protein stability index is reported as 1.99.
Variant L12Q has a protein stability index of 2.11.
Variant L12P has a protein stability index of 1.77.
With L12F the protein stability index was 3.73.
For L12C, the protein stability index was 3.25.
In the case of L12R, the protein stability index is reported as 2.35.
L12M showed a protein stability index of 3.48.
In the case of L12G, the protein stability index is reported as 2.83.
For L12V, the protein stability index was 1.44.
L12D showed a protein stability index of 2.38.
